Here are results for three molecules from US20070111265A1 (published 2007).

As a reminder, the IC50 is the concentration at which inhibition is half-maximal. Low readings indicate inhibition by little substance, high ones a need for much substance.

The target in test [1] is T1, human MR LBD (residues 727-984) containing a C808S mutation, 6xHis-GST fusion protein (;human, UniProt P08235 727-984).
T1 chain: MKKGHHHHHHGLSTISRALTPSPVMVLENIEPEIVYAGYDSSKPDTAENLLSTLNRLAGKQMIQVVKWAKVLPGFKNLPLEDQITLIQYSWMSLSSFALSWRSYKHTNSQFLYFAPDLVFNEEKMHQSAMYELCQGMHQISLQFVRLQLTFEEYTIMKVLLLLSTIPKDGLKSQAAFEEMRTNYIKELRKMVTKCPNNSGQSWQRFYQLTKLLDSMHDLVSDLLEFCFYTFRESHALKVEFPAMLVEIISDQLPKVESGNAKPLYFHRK
The experiment in a line: AlphaScreen competition; corticosterone. A general note: Bead proximity is the source of the signal in Alpha formats.

For test [2], the target named is T1, human MR LBD (residues 727-984) …. The test is described as follows: AlphaScreen peptide competition; corticosterone.

B1: PGC1α-(1+2), human PGC1α fragment (residues 1-220) containing both LXXLL motifs, 6xHis-GST fusion protein (other)
chain: MAWDMCNQDSESVWSDIECAALVGEDQPLCPDLPELDLSELDVNDLDTDSFLGGLKWCSDQSEIISNQYNNEPSNIFEKIDEENEANLLAVLTETLDSLPVDEDGLPSFDALTDGDVTTDNEASPSSMPDGTPPPQEAEEPSLLKKLLLAPANTQLSYNECSGLSTQNHANHNHRIRTNPAIVKTENSWSNKAKSICQQQKPQRRPCSELLKYLTTNDDP
In test [1], B1 yielded an IC50 of 40 nM.

B2: unlabeled PGC1α-1 peptide (peptide)
peptide: AEEPSLLKKLLLAPA
As to B2, in test [2], the IC50 was 900 nM. In other words, the sub-micromolar range.

B3: unlabeled PGC1α-2 peptide (peptide)
peptide: RRPCSELLKYLTTND
The molecule B3 showed an IC50 in test [2] of 1100 nM.
